Assay results: patent publication US7128910B2, “Moraxella catarrahalis outer membrane protein-106 polypeptide, gene sequences and uses thereof” (priority 1996, dated 2006)

Test system: M. catarrhalis ATCC 49143
Assay: Proteolytic digestion of intact cells followed by hemagglutination test
Assay type: cell-based, Moraxella catarrhalis
Conditions: intact cells digested 1 hour at room temperature
Description: All proteases were obtained from Sigma Chemicals (St. Louis, Mo.). Immediately following the protease treatment, cells were washed once in PBS and resuspended in 1 ml of PBS and the hemagglutinating activity was tested. Additionally, protease-treated bacterial cells were extracted with octyl glucoside so the outer membrane proteins could be resolved to identify specific proteins that may have been digested by the proteases.

B1: proteinase K: Protease from Sigma Chemicals (protein, UniProt P06873 106-384, looked up)
Proteinase K: AAQTNAPWGLARISSTSPGTSTYYYDESAGQGSCVYVIDTGIEASHPEFEGRAQMVKTYYYSSRDGNGHGTHCAGTVGSRTYGVAKKTQLFGVKVLDDNGSGQYSTIIAGMDFVASDKNNRNCPKGVVASLSLGGGYSSSVNSAAARLQSSGVMVAVAAGNNNADARNYSPASEPSVCTVGASDRYDRRSSFSNYGSVLDIFGPGTSILSTWIGGSTRSISGTSMATPHVAGLAAYLMTLGKTTAASACRYIADTANKGDLSNIPFGTVNLLAYNNYQA
Effect of protease treatment on hemagglutination activity: destroyed the hemagglutination activity
